Reference: the supplement of paper PMC11136658

Test system: peptide library, one residue held at a place counted from the Y acceptor
Assay: relative phosphorylation of the sub-library (ratio to the mean residue at this position); higher = residue favoured
Outline: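 Purified recombinant kinases were incubated for 90 min in 384-well plates with biotinylated Tyr-centred peptide library mixtures, each fixing one residue at one position from −5 to +5, plus 50 μM ATP with γ-32P-ATP. Peptides were captured on streptavidin membranes, rinsed and quantified by phosphorimaging and ImageQuant. Intensities were normalized per position by the sum of the 18 (or 16, Ser/Thr-free library) randomized residues and multiplied by that number. Values give phosphorylation relative to the mean randomized residue.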

Sequence of MET, construct: aa956-end, human (P08581 956-1390, looked up): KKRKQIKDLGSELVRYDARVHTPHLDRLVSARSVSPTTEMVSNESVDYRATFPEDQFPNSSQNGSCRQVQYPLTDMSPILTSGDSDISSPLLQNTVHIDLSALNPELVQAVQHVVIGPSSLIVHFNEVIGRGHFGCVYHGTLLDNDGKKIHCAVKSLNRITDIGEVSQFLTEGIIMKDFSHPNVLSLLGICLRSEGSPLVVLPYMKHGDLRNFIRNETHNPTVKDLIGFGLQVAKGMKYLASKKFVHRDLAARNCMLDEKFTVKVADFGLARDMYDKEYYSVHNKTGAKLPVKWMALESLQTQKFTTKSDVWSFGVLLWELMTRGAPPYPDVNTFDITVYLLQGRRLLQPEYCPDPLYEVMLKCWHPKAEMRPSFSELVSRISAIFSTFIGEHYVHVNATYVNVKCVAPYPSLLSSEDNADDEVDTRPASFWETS
Sequence of MATK, construct: Full length, human (P42679 whole entry, looked up): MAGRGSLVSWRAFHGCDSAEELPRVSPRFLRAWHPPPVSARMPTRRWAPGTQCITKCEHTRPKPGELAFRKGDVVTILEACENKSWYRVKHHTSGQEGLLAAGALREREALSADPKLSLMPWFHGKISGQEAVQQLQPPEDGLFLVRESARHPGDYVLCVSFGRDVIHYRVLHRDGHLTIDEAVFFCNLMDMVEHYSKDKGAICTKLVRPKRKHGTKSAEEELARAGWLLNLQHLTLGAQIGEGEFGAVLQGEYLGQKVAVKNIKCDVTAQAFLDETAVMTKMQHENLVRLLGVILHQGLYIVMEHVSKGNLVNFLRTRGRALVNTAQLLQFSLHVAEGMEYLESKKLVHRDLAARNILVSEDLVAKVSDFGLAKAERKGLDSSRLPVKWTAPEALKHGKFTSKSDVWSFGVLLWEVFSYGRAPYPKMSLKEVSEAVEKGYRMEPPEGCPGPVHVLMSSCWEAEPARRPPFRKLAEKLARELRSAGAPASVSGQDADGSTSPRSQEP

MATK, construct: Full length, human (from UniProt P42679)
relative phosphorylation
Details	at +1	at +2	at +3	at +4	at +5	at -1	at -2	at -3	at -4	at -5
A fixed	1.54	0.899	0.728	0.85	0.892	0.545	0.986	0.875	1.17	0.971
D fixed	0.52	0.698	0.362	0.806	0.935	1.04	0.725	1.43	1.29	1.34
E fixed	1.01	0.877	0.364	1.15	1.09	2.07	1.36	2.47	1.78	1.26
F fixed	0.735	1.12	1.38	0.839	1.18	0.512	0.538	0.854	0.872	0.935
G fixed	0.643	0.46	0.667	0.962	0.845	0.407	1.23	0.95	1.39	1.18
H fixed	1.61	0.658	1.15	1.49	1	1.71	1.09	1.08	0.975	1.01
I fixed	0.964	0.972	1.95	0.803	0.862	2.32	0.822	0.599	0.724	0.922
K fixed	0.833	0.932	1.12	1.19	0.979	0.703	0.911	0.76	0.982	0.986
L fixed	0.776	1.24	1.51	0.876	0.881	0.905	0.737	0.683	0.756	0.763
M fixed	1.22	1.32	0.915	0.998	0.983	0.954	0.677	0.736	0.749	0.845
N fixed	0.804	1.3	0.491	1.14	1.09	0.988	1.03	1.23	0.879	1.1
P fixed	0.521	0.763	1.08	1.15	0.952	0.536	1.15	1.07	1.1	1.06
Q fixed	1.13	0.885	0.749	0.856	0.991	1.02	1	0.8	1.1	1.09
R fixed	1.04	1.42	1.19	1.4	1.24	0.706	1	0.967	1.04	1.09
S fixed	1.1	0.845	0.674	0.789	1.11	0.423	1.77	1.06	0.803	0.738
T fixed	0.927	0.839	0.842	0.772	1.01	0.818	1.41	0.868	0.713	0.923
V fixed	1.24	0.848	1.46	0.665	0.832	1.72	0.887	0.696	0.668	0.724
W fixed	1.38	1.93	1.37	1.27	1.14	0.627	0.671	0.869	1	1.06
pThr fixed	1.28	1.53	0.438	0.544	0.806	0.806	1.4	2.14	1.28	0.879
pTyr fixed	3.3	3.6	0.787	1.2	0.998	9.49	2.64	4.79	3	1.8

MET, construct: aa956-end, human (from UniProt P08581)
relative phosphorylation
Details	at +1	at +2	at +3	at +4	at +5	at -1	at -2	at -3	at -4	at -5
A fixed	1.33	1.03	0.632	0.901	1.11	0.739	1.1	0.977	1.04	1.05
D fixed	0.433	0.808	0.32	0.658	0.938	1.86	1.52	1.64	1.4	1.27
E fixed	0.821	0.83	0.252	0.581	0.861	1.37	1.45	1.79	1.61	1.09
F fixed	1.25	1.07	1.28	1.3	1.05	0.688	0.534	0.663	0.914	0.869
G fixed	0.609	0.616	0.564	1.02	0.906	0.478	1.21	1.22	1.21	1.11
H fixed	1.34	0.874	0.869	0.998	0.879	1.24	0.819	0.911	0.916	1
I fixed	1.4	0.913	2.4	0.797	0.796	1.7	0.711	0.529	0.737	0.721
K fixed	0.531	0.705	0.431	0.87	0.978	0.496	0.738	0.866	0.86	1.19
L fixed	0.758	0.935	1.9	0.771	1.02	1.06	0.704	0.558	0.728	0.724
M fixed	0.84	0.833	1.43	0.883	0.965	0.774	0.583	0.596	0.746	0.733
N fixed	0.574	1.29	0.537	0.875	1.02	1.26	1.16	1.37	0.984	0.995
P fixed	0.442	0.961	1.36	1.09	1.21	0.659	1.59	1.22	1.18	1.16
Q fixed	1.21	1.03	0.578	0.994	0.932	1.12	1.17	1.1	1.07	0.976
R fixed	0.887	1.07	0.554	1.06	1.05	0.597	0.88	0.918	0.995	1.18
S fixed	1.11	1.25	0.616	0.957	1.2	0.704	1.34	1.27	0.948	1
T fixed	1.26	1.18	0.723	0.899	1.02	1.11	0.99	0.977	0.767	0.893
V fixed	1.99	1.07	1.72	0.851	0.867	1.21	0.868	0.605	0.711	0.735
W fixed	1.22	1.54	1.84	2.49	1.2	0.931	0.629	0.784	1.19	1.31
pThr fixed	1.16	1.4	0.271	0.399	0.597	2.21	1.93	1.77	1.38	1.32
pTyr fixed	3.19	2.63	0.524	0.871	0.771	4.16	1.47	1.82	2.14	1.64
